Test results published in patent US20220380763A1, “NUCLEIC ACID DELIVERY ENHANCER” (NATIONAL UNIVERSITY CORPORATION KOCHI UNIVERSITY, priority 2019, published 2022).
Where two headings read alike, the source gives them in different places. Numbered stars: 1 amine (or outer) side, 2 acyl side, 3 side chain; on linkers, the order of the positions; unused ones are H or OH. Square brackets hold non-standard residues; d marks the D form. Peptide text beside a SMILES is read from it. * marks the point of attachment. Pteroyl = Nc1nc2ncc(CNc3ccc(C(=O)*)cc3)nc2c(=O)[nH]1; γGlu = O=C(O)[C@H](CCC(=O)[*:2])N[*:1]; Dab = NCC[C@H](N)C(=O)O

Key:
[1] = system: pancreatic cancer tissue of mice carrying human pancreatic cancer organoids derived from S2-013 pancreatic cancer cells; settings: for delivery of SNORA22 siRNA to pancreatic cancer tissue: 5 μg siRNA tail vein, 24 hours
Protocol: Human pancreatic cancer organoids were prepared using 52-013 pancreatic cancer cells by modifying the method described in JP Patent Application Publication No. 2018-110575 A1.
Specifically, the S2-013 pancreatic cancer cells (20×10^4 cells), human mesenchymal stem cells MSC (LONZA, 40×10^4 cells), and human umbilical vein endothelial cells HUVEC (LONZA, 14×10^4 cells) were added to DMEM/Matrigel mixed solution in a 48-well plate (Thermo Fisher Scientific Inc.) and incubated in a CO2 incubator at 37° C. for 30 minutes.
Then, 300 μL/well of DMEM/EGM mixed solution was added thereto and incubated again at 37° C. for 24 hours to prepare one pancreatic cancer organoid in each well.
Subsequently, the skin on the flank of nude mice (6-week-old BALB/cSlc-nu/nu (Pathogen-free female athymic nude mice), Japan SLC, Inc.) was incised, and the pancreatic cancer organoids obtained above were subcutaneously transplanted (2 mice in each group).
Six weeks after transplantation, the chemically-modified SNORA22 siRNA (SEQ ID NOs: 27 and 28, 5 μg) labeled with Alexa-594 was administered with 1, 2, or 3 equivalents of the cationic oligopeptide (Dab8) or the folic acid-cationic oligopeptide complex (Fol-Dab8A or Fol-Dab8B) by tail vein injection. After 24 hours, images were taken with an in vivo imager.
Measuring instrument: Spectrum In Vivo Imaging System (PerkinElmer, Inc., Waltham, Mass.)
Measurement condition: kexc 640 nm, kemi 680 nm
In the same manner as in Example 11, the delivery of chemically-modified SNORA18 siRNA (SEQ ID NOs: 21 and 22) to pancreatic cancer-carrying mice when administered with the folic acid-cationic oligopeptide complex (Fol-Dab8A or Fol-Dab8B) was imaged using an in vivo imager.
In the same manner as in Examples 11 and 13, the delivery of chemically-modified WASF2 siRNA (SEQ ID NOs: 25 and 26) to pancreatic cancer-carrying mice when administered with the folic acid-cationic oligopeptide complex (Fol-Dab8A or Fol-Dab8B) was imaged using an in vivo imager.

[2] = system: bovine pancreas-derived RNase A; settings: 1 or more equivalents; 10 nM siRNA, 37° C., 60 minutes
Protocol: RNA-degrading enzyme resistance of the nucleic acid duplex was tested in the presence of a cationic oligopeptide.
In this Example, peptides were added to the annealed RNA duplex to form a complex, and the rate of RNA degradation was measured.
Subsequently, the mixture was kept at 95° C. for 5 minutes and then slowly cooled to 4° C. at −0.5° C./min.
Thereafter, 15 μL of 100 μg/mL bovine pancreas-derived RNase A (manufactured by F. Hoffmann-La Roche, Ltd.) was added with stirring at 37° C., and fluorescence intensity measurement was started to track changes over time (excitation wavelength: 490 nm; measurement wavelength: 520 nm; and measurement time: 60 minutes).

[3] = system: RNA duplex (siRNA, SEQ ID NO: 1 and 2); settings: for Tm: 4 μM nucleic acid duplex, 100 mM NaCl, pH 7.0; for ΔTm: versus no peptide (72.3)
Protocol: The melting temperature of the nucleic acid duplex was measured in the presence and absence of the cationic oligopeptide or folic acid-cationic oligopeptide complex synthesized in Example 1.
In this Example, the cationic oligopeptide (Dab8) or the folic acid-cationic oligopeptide (Fol-Dab8A or Fol-Dab8B) was added to an annealed RNA duplex, and the melting temperature (Tm value) was measured. As the RNA duplex, an oligonucleotide pair consisting of the following sequences was used as an siRNA.
After 144 μL of 50 μM nucleic acid solution was prepared and kept at 95° C. for 5 minutes, it was slowly cooled to 4° C. at −0.5° C./min. The solution was added to a mixed solution of pH 7.0 buffer containing 200 mM NaCl and 20 mM Na2HPO4—NaH2PO4 in OTSUKA DISTILLED WATER, and 0.1 mM peptide aqueous solution, and samples were adjusted to a final concentration of 10 mM Na2HPO4—NaH2PO4, 100 mM NaCl, 4 μM nucleic acid duplex, and 0, 4, 8, 12, 16, and 20 μM peptide (0, 1, 2, 3, 4, and 5 equivalents, respectively).
The temperature was increased from 20° C. to 95° C. at 0.5° C./min, and the absorbance at 260 nm was measured to determine a melting curve. The absorbance at 320 nm was measured to remove background noise, and a melting curve was created by subtracting the absorbance at 320 nm from the absorbance at 260 nm, and the Tm value was determined by a median method.

[4] = system: S2-013 pancreatic cancer cells or HPNE normal pancreatic duct epithelial cells; settings: chemically-modified Alexa488-labeled SNORA22 siRNA, 2 equivalents, overnight
From the text: Chemically-modified SNORA22 siRNA (SEQ ID NOs: 27 and 28) prepared in Example 7 was labeled with Alexa488 (Thermo Fisher Scientific Inc.) and added with the folic acid-cationic oligopeptide complex (Fol-Dab8B, 2 equivalents) to the culture solution of S2-013 pancreatic cancer cells or HPNE normal pancreatic duct epithelial cells (ATCC) in a 4-well chamber (Thermo Fisher Scientific Inc.) (5×10^4 cells/well).

[5] = chemically-modified SNORA18 siRNA, 1 to 3 equivalents
[6] = chemically-modified WASF2 siRNA, 1 to 3 equivalents
[7] = compared to Dab8, 1 to 3 equivalents

Row | SMILES | delivery of SNORA18 siRNA to pancreatic cancer tissue [1, 5] | delivery of WASF2 siRNA to pancreatic cancer tissue [1, 6] | delivery of SNORA22 siRNA to pancreatic cancer tissue [1, 7] | rate of increase in fluorescence intensity (degradation of RNA duplex by RNase A) [2] | Tm ([3]; 1 equivalent peptide) [°C] | ΔTm ([3]; 1 equivalent peptide) | Tm ([3]; 2 equivalents peptide) [°C] | ΔTm ([3]; 2 equivalents peptide) | Tm ([3]; 3 equivalents peptide) [°C] | ΔTm ([3]; 3 equivalents peptide) | Tm ([3]; 4 equivalents peptide) [°C] | ΔTm ([3]; 4 equivalents peptide) | Tm ([3]; 5 equivalents peptide) [°C] | ΔTm ([3]; 5 equivalents peptide) | further results
1 | NCC[C@H](NC(=O)[C@H](CCN)NC(=O)[C@H](CCN)NC(=O)[C@H](CCN)NC(=O)[C@H](CCN)NC(=O)[C@H](CCN)NC(=O)[C@H](CCN)NC(=O)[C@H](CCN)NC(=O)CNC(=O)CNC(=O)CNC(=O)CC[C@H](NC(=O)c1ccc(NCc2cnc3nc(N)[nH]c(=O)c3n2)cc1)C(=O)O)C(N)=O [Fol-Dab8A] ({Pteroyl-γGlu}-GGG[Dab][Dab][Dab][Dab][Dab][Dab][Dab][Dab]-NH2) | enhanced | enhanced | enhanced | slower | 75.2 | 2.9 | 76.8 | 4.5 | 77.7 | 5.4 | 78.7 | 6.4 | 79.1 | 6.8 | delivery of SNORA18 siRNA to pancreatic cancer tissue ([1]; 1 equivalent): high concentration; delivery of SNORA18 siRNA to pancreatic cancer tissue ([1]; 3 equivalents): high concentration; delivery of SNORA22 siRNA to pancreatic cancer tissue ([1]; 3 equivalents): high concentration
2 | NCC[C@H](NC(=O)[C@H](CCN)NC(=O)[C@H](CCN)NC(=O)[C@H](CCN)NC(=O)[C@H](CCN)NC(=O)[C@H](CCN)NC(=O)[C@H](CCN)NC(=O)[C@H](CCN)NC(=O)CNC(=O)CNC(=O)CNC(=O)[C@H](CCC(=O)O)NC(=O)c1ccc(NCc2cnc3nc(N)[nH]c(=O)c3n2)cc1)C(N)=O [Fol-Dab8B] (Pteroyl-EGGG[Dab][Dab][Dab][Dab][Dab][Dab][Dab][Dab]-NH2) | enhanced | enhanced | enhanced | slower | 74.5 | 2.2 | 76.4 | 4.1 | 77.7 | 5.4 | 78.5 | 6.2 | 79.8 | 7.5 | delivery of WASF2 siRNA to pancreatic cancer tissue ([1]; 1 equivalent): high concentration; delivery of SNORA22 siRNA to pancreatic cancer tissue ([1]; 2 equivalents): high concentration; delivery of WASF2 siRNA to pancreatic cancer tissue ([1]; 3 equivalents): high concentration; uptake of SNORA22 siRNA into S2-013 pancreatic cancer cells relative to normal cells (HPNE) [4]: ~3 fold
